For assay [1], the target named is T1, CabRC core (PscA homodimer) in the CabRC complex (Chloracidobacterium thermophilum, UniProt G2LDR8).
T1 construct: gene Cabther_A2188; native complex from C. thermophilum membranes, Triton X-100, untagged; PscA homodimer with 11 TMHs each, insertion N440-H644; smaller form CabRCS without and larger form CabRCL with PscB and PscZ; with c-type cytochrome PscX; c-type cytochrome PscY; Reaction center subunit PscU; Reaction center subunit PscV; Reaction center subunit PscW
The assay is described as follows: cryo-EM structure ([…] Å CabRCS; […] Å CabRCL); HPLC of pigments. It is filed as binding. As to conditions: one transmembrane molecule in each PscA.

Assay [2] concerns the target PscA (Chloracidobacterium thermophilum). The assay can be described thus: cryo-EM structure; CabRCS (smaller form, ten subunits), native complex purified from C. thermophilum membranes in Triton X-100; 2.22 Å; 20 mM Tris-HCl pH 7.6, 10 mM ascorbic acid, 0.03% Triton X-100.
The target in a further assay is T2, PscB (Chloracidobacterium thermophilum, UniProt G2LDR7 1-179).
T2 construct: Only in the larger form CabRCL; also called PscB/CabRC
T2 sequence (looked up): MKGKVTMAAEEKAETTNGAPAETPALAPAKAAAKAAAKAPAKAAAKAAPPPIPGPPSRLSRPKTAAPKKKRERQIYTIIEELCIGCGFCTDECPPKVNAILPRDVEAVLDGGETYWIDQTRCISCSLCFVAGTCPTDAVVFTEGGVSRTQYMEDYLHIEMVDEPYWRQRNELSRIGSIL
The assay is described as follows: cryo-EM structure; CabRCL (larger form with PscB and PscZ), native complex purified from C. thermophilum membranes in Triton X-100; 2.61 Å global, cytoplasmic region ~3.5 to ~5.0 Å; 20 mM Tris-HCl pH 7.6, 10 mM ascorbic acid, 0.03% Triton X-100. The note with it: both partners purified.

With `CC(C)=CCC/C(C)=C/C=C/C(C)=C/C=C/C(C)=C/C=C/C=C(C)/C=C/C=C(C)/C=C/C=C(\C)CCC=C(C)C` [lycopene], in assay [1], the “cryo-EM structure (2.22 Å CabRCS; 2.61 Å CabRCL); HPLC of pigments” value was “we identified one transmembrane lycopene molecule in each PscA”.
PscA (natural protein) gave a stoichiometry N in assay [2] of 2.

B1: PscZ (natural protein, Chloracidobacterium thermophilum, UniProt G2LHG2 1-60, looked up)
chain: MARTPEEIVKRYKEANIWLRHWKQQIGLAKDEEQREMFTQYYEERVQEIAALEEPYRAAL
notes: Only in the larger form CabRCL
Regarding B1, in the assay with PscB, the binding result was “binds”.

As a reminder, the stoichiometry N is the number of molecules, sites or subunits per partner or assembly.
